According to the supplement of paper PMC10126150:
± gives the standard deviation of the averaged measurements.

System: ATP
Test: switch fluorescence ratio, 500 uM ATP over buffer (Cy3 cluster intensity, sum of 5 cycles each) (fold (ratio)); higher = stronger signal-on switching upon ATP binding; sequences stand for … in TCGTCGGCAGCGTCAGATGTGTATAAGAGACAGTTTTTTTTTTTTTTTTTTTTTTTTT…TC
Conditions: aptamer strand: ATP DNA aptamer (quencher-CACCTGGGGGAGTATTGCGGAGGAAGG + anchor), 100 nM annealed; ATP concentration: 500 uM
Procedure, shortened: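 Clusters carrying Cy3-labelled switching strands on a modified Illumina MiSeq flow-cell were annealed to 100 nM quencher-labelled ATP aptamer and imaged in selection buffer. They were imaged again after 15 min with 500 uM ATP at 22 °C, over five buffer/ATP cycles with NaOH stripping and re-annealing in between. For each cluster, the fluorescence ratio is the summed Cy3 intensity of the target cycles divided by that of the buffer cycles, averaged per switch-domain sequence. Clusters outside 100-1000 RFU were left out.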
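Note: ATP exposure 15 min at 22 °C before imaging.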

Row | Sequence | switch fluorescence ratio
1 | CCTTTTGTAC | 1.386 ± 0.011
2 | CCTTTTTCTT | 1.04 ± 0.029
3 | CCTTTTTGT | 0.993 ± 0.027
4 | CGAAAAAGAT | 1.04 ± 0.079
5 | CGAAAAGTTG | 1.01 ± 0.048
6 | CGAAAGCTTG | 1.05 ± 0.02
7 | CGAAAGTTTA | 1.008 ± 0.0021
8 | CGAAATCCTT | 1.05 ± 0.039
9 | CGAACGAAAA | 0.992 ± 0.04
10 | CGAACGGGGG | 1 ± 0.032
11 | CGAACTGGGT | 1.03 ± 0.028
12 | CGAACTGTGG | 0.9673 ± 0.009
13 | CGAACTTGGA | 0.9882 ± 0.0074
14 | CGAAGATTTT | 1.05 ± 0.022
15 | CGAAGGGACG | 1.05 ± 0.081
16 | CGAAGGGGGA | 0.995 ± 0.021
17 | CGAAGGTTTT | 1.02 ± 0.015
18 | CGAAGTACAT | 1.16 ± 0.0019
19 | CGAAGTAGAG | 1.029 ± 0.0064
20 | CGAATAATCA | 0.982 ± 0.053
21 | CGAATAGCGG | 0.9757 ± 0.002
22 | CGAATATTAA | 0.994 ± 0.013
23 | CGAATATTTG | 0.996 ± 0.026
24 | CGAATCAATC | 2.51 ± 0.44
25 | CGAATGTTCG | 0.998 ± 0.035

Row | Sequence | switch fluorescence ratio
26 | CGAATTAAAC | 0.99 ± 0.029
27 | CGAATTTTTG | 0.982 ± 0.018
28 | CGACAAAGCC | 1.28 ± 0.014
29 | CGACGAAACT | 1.15 ± 0.021
30 | CGACGAGGCT | 1.21 ± 0.024
31 | CGACGGGCAG | 1.01 ± 0.042
32 | CGACGTGGGA | 1.042 ± 0.0055
33 | CGACGTGTGG | 1.02 ± 0.03
34 | CGACTGTTTT | 1.02 ± 0.015
35 | CGACTTACAT | 1.24 ± 0.057
36 | CGAGAAAGAG | 0.983 ± 0.077
37 | CGAGAAGTTT | 1.005 ± 0.0081
38 | CGAGACCACA | 1.05 ± 0.043
39 | CGAGACGGGG | 0.959 ± 0.042
40 | CGAGAGCCAC | 1.13 ± 0.047
41 | CGAGATGTGG | 1.02 ± 0.011
42 | CGAGCATGTA | 1.168 ± 0.0052
43 | CGAGCCTTGT | 1.01 ± 0.04
44 | CGAGCGGGGG | 1.01 ± 0.047
45 | CGAGCTGCAT | 1.08 ± 0.011
46 | CGAGGCCTGG | 1 ± 0.011
47 | CGAGGCTCCG | 1.05 ± 0.026
48 | CGAGGGAGTA | 0.993 ± 0.035
49 | CGAGGGGATT | 1.25 ± 0.54
50 | CGAGGGGTTC | 0.9908 ± 0.0044

Row | Sequence | switch fluorescence ratio
51 | CGAGGGGTTG | 1 ± 0.04
52 | CGAGGGTAGT | 1.01 ± 0.025
53 | CGAGGGTCTC | 1.01 ± 0.029
54 | CGAGGTACTG | 1.01 ± 0.0034
55 | CGAGGTAGCT | 1 ± 0.021
56 | CGAGGTAGGG | 1.01 ± 0.073
57 | CGAGGTGGCT | 1.01 ± 0.028
58 | CGAGGTGGGA | 0.9972 ± 0.0025
59 | CGAGTACTGT | 0.994 ± 0.025
60 | CGAGTAGAGG | 1.02 ± 0.026
61 | CGAGTAGTCA | 0.994 ± 0.018
62 | CGAGTATGGG | 0.9859 ± 0.0011
63 | CGAGTATTAC | 1.09 ± 0.04
64 | CGAGTCCAGG | 6.48 ± 0.097
65 | CGAGTCTTTG | 1.03 ± 0.059
66 | CGAGTGGGTG | 0.996 ± 0.018
67 | CGAGTGTCAG | 0.976 ± 0.028
68 | CGAGTTATTG | 1.08 ± 0.094
69 | CGAGTTCGTT | 1 ± 0.025
70 | CGATAAAGAG | 1.02 ± 0.013
71 | CGATAACGTC | 0.992 ± 0.011
72 | CGATAATTTG | 0.994 ± 0.015
73 | CGATACGATG | 0.995 ± 0.011
74 | CGATACTTGA | 0.99 ± 0.038
75 | CGATAGCAGC | 2.43 ± 0.52

Row | Sequence | switch fluorescence ratio
76 | CGATAGGGGG | 1.01 ± 0.022
77 | CGATAGTTAG | 0.986 ± 0.044
78 | CGATATAAGT | 1 ± 0.025
79 | CGATATAGAC | 1.06 ± 0.013
80 | CGATATCCAC | 1.07 ± 0.013
81 | CGATCACCTG | 1.02 ± 0.063
82 | CGATCCGGCG | 1.08 ± 0.16
83 | CGATCCTATG | 0.969 ± 0.045
84 | CGATCGGATG | 1.03 ± 0.023
85 | CGATCTAGTA | 0.97 ± 0.015
86 | CGATGAGGGT | 1.01 ± 0.029
87 | CGATGGACGG | 1.01 ± 0.033
88 | CGATGGGCTA | 1.02 ± 0.056
89 | CGATGGGTGC | 0.946 ± 0.015
90 | CGATGGTAGA | 1.03 ± 0.027
91 | CGATGGTGGC | 1.073 ± 0.0067
92 | CGATGGTGGG | 0.987 ± 0.0088
93 | CGATGTCACG | 1 ± 0.033
94 | CGATGTGCCC | 0.983 ± 0.024
95 | CGATGTGCGG | 1.03 ± 0.062
96 | CGATGTTGGG | 0.99 ± 0.018
97 | CGATGTTTTC | 1.03 ± 0.073
98 | CGATTAACTC | 1.03 ± 0.012
99 | CGATTAGGGA | 1 ± 0.028
100 | CGATTAGGTG | 1.193 ± 0.0052

Row | Sequence | switch fluorescence ratio
101 | CGATTAGTTA | 0.998 ± 0.023
102 | CGATTATCTT | 1.01 ± 0.011
103 | CGATTATGTA | 0.9667 ± 0.0078
104 | CGATTCAACG | 1.02 ± 0.012
105 | CGATTGGAGT | 0.9864 ± 0.0058
106 | CGATTGGGGC | 0.992 ± 0.013
107 | CGATTGGGTC | 0.999 ± 0.013
108 | CGATTGTGGG | 0.9962 ± 0.0092
109 | CGATTTAGAG | 0.988 ± 0.019
110 | CGATTTAGCT | 0.988 ± 0.037
111 | CGATTTCCTA | 0.987 ± 0.015
112 | CGCACGAGGC | 1.23 ± 0.05
113 | CGCAGCCAGG | 3.33 ± 0.27
114 | CGCATAGCTT | 1.12 ± 0.021
115 | CGCATCGTAA | 1.074 ± 0.0044
116 | CGCATGGAGT | 1.04 ± 0.015
117 | CGCATGGCCT | 1.04 ± 0.072
118 | CGCATGTAAC | 3.43 ± 0.81
119 | CGCATGTTTT | 1.06 ± 0.1
120 | CGCATTGGGG | 1.13 ± 0.037
121 | CGCATTGTGA | 1.02 ± 0.063
122 | CGCCAAATG | 1.033 ± 0.0019
123 | CGCCAACAAC | 1.78 ± 0.036
124 | CGCCAGGGGA | 1.43 ± 0.59
125 | CGCCGAAGGG | 0.98523 ± 0.00014

Row | Sequence | switch fluorescence ratio
126 | CGCCGGACAT | 1.04 ± 0.0027
127 | CGCCGGGGAT | 1.004 ± 0.002
128 | CGCCGGTTGG | 0.997 ± 0.014
129 | CGCCGTCTCA | 1.02 ± 0.042
130 | CGCCGTTGCG | 0.989 ± 0.065
131 | CGCCTAACGA | 1.08 ± 0.024
132 | CGCCTGACAC | 1.26 ± 0.0035
133 | CGCCTTTACA | 1.02 ± 0.029
134 | CGCCTTTACC | 1.18 ± 0.013
135 | CGCGACAACA | 0.999 ± 0.031
136 | CGCGAGAATA | 1.01 ± 0.084
137 | CGCGAGATAT | 1.03 ± 0.043
138 | CGCGAGGACT | 1.27 ± 0.11
139 | CGCGATCTGT | 1.18 ± 0.046
140 | CGCGCCGGGC | 1.03 ± 0.057
141 | CGCGCCTATC | 1.11 ± 0.02
142 | CGCGCTACTT | 1.73 ± 0.039
143 | CGCGGAACTG | 1.09 ± 0.016
144 | CGCGGACACG | 1.01 ± 0.048
145 | CGCGGGAAAA | 1.01 ± 0.099
146 | CGCGGGAATG | 1.05 ± 0.033
147 | CGCGGGGGGG | 1 ± 0.025
148 | CGCGGTGTCC | 1.02 ± 0.011
149 | CGCGTCAACG | 1.01 ± 0.027
150 | CGCGTCATGA | 1.02 ± 0.0043

Row | Sequence | switch fluorescence ratio
151 | CGCGTCTGGG | 1.01 ± 0.042
152 | CGCGTGATGG | 1 ± 0.021
153 | CGCGTGATTT | 1.06 ± 0.058
154 | CGCGTGGCTG | 1 ± 0.019
155 | CGCGTGGGGG | 1.03 ± 0.081
156 | CGCGTTGTTG | 1.03 ± 0.012
157 | CGCTAATTGG | 1.09 ± 0.014
158 | CGCTACGGTT | 1.042 ± 0.0016
159 | CGCTAGGGTG | 1.115 ± 0.0032
160 | CGCTAGGTGT | 2.33 ± 0.76
161 | CGCTATATGG | 1.32 ± 0.047
162 | CGCTCATTTG | 0.97 ± 0.016
163 | CGCTCTAATA | 1.058 ± 0.01
164 | CGCTGAATTT | 0.975 ± 0.03
165 | CGCTGAGTGC | 1.08 ± 0.034
166 | CGCTGGATGG | 0.985 ± 0.0075
167 | CGCTGGGGGC | 1.03 ± 0.016
168 | CGCTGGTGGG | 1.01 ± 0.029
169 | CGCTGTATCG | 0.996 ± 0.043
170 | CGCTGTCACG | 1.0556 ± 0.00068
171 | CGCTTAAAGT | 1.03 ± 0.05
172 | CGCTTAGATT | 0.997 ± 0.025
173 | CGCTTCCGGG | 1.37 ± 0.059
174 | CGCTTCGGTT | 0.963 ± 0.032
175 | CGCTTCTGGG | 0.98 ± 0.011

Row | Sequence | switch fluorescence ratio
176 | CGCTTGAAAT | 1.05 ± 0.018
177 | CGCTTGTTCG | 1.01 ± 0.027
178 | CGCTTTCTTT | 1.03 ± 0.041
179 | CGCTTTGATA | 0.991 ± 0.03
180 | CGGAAACAAA | 1.01 ± 0.075
181 | CGGAAACGTG | 1.01 ± 0.028
182 | CGGAACAGCA | 1.08 ± 0.051
183 | CGGAAGCGGG | 1.02 ± 0.038
184 | CGGAAGGAAG | 0.946 ± 0.036
185 | CGGAAGGGAG | 0.996 ± 0.015
186 | CGGAAGTGTG | 0.981 ± 0.039
187 | CGGAAGTTAT | 1.01 ± 0.04
188 | CGGAATATGG | 1.0484 ± 0.001
189 | CGGAATTTCC | 1.09 ± 0.048
190 | CGGACACTTT | 1.019 ± 0.0091
191 | CGGACAGGAG | 0.98 ± 0.051
192 | CGGACCAAGG | 1 ± 0.077
193 | CGGACCATTT | 1.04 ± 0.024
194 | CGGACTAGCG | 0.944 ± 0.032
195 | CGGAGAGAGC | 0.993 ± 0.011
196 | CGGAGATGGC | 1.05 ± 0.038
197 | CGGAGCGCGT | 0.991 ± 0.019
198 | CGGAGGAGCA | 0.968 ± 0.061
199 | CGGAGGCGGT | 1.02 ± 0.047
200 | CGGAGGGAGG | 0.928 ± 0.091
